Measured values: PMC7382298 (Immunity, 2020)
Residue numbers refer to the chain shown, from its start. Numbers in names are those of the source.

Experiments:
[1] = biological target: the molecule itself; test: crystal structure
[2] = biological target: T1, GST-Mouse full-length GSDMD harboring V367A/E369K mutations (mouse, UniProt Q9D8T2 1-487, V367A | E369K); test: pull-down
T1 sequence (looked up): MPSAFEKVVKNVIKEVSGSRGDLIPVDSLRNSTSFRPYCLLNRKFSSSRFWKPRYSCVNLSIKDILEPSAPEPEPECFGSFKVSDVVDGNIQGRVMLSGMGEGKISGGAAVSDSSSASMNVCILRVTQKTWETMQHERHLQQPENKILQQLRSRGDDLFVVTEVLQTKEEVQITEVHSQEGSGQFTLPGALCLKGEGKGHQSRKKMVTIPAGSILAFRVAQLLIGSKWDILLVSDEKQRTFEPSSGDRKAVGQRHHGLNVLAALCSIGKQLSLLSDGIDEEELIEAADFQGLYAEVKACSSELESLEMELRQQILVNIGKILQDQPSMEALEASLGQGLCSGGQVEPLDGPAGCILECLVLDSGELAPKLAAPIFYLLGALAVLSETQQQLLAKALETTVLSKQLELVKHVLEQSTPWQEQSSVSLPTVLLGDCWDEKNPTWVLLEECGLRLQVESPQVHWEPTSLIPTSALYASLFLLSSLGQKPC

[3] = biological target: T2, GST-Human GSDMD harboring truncation of residues 243-278 (human, UniProt P57764 1-484, truncation of residues 243-278); test: pull-down
T2 sequence (looked up): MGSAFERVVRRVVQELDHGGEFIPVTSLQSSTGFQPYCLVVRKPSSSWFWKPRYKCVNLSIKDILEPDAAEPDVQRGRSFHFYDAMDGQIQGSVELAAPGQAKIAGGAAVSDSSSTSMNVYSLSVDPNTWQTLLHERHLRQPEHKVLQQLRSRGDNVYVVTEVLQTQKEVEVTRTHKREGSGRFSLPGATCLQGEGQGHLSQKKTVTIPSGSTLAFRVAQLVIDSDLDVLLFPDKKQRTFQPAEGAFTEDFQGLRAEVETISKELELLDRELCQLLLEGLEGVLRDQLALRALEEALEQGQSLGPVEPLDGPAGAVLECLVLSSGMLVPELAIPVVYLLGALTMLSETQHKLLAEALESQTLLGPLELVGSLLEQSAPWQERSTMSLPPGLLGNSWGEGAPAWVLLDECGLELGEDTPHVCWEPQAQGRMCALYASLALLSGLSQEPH

[4] = biological target: T3, GST-Human full-length wild type GSDMD (human, UniProt P57764 1-484); test: pull-down
T3 sequence (looked up): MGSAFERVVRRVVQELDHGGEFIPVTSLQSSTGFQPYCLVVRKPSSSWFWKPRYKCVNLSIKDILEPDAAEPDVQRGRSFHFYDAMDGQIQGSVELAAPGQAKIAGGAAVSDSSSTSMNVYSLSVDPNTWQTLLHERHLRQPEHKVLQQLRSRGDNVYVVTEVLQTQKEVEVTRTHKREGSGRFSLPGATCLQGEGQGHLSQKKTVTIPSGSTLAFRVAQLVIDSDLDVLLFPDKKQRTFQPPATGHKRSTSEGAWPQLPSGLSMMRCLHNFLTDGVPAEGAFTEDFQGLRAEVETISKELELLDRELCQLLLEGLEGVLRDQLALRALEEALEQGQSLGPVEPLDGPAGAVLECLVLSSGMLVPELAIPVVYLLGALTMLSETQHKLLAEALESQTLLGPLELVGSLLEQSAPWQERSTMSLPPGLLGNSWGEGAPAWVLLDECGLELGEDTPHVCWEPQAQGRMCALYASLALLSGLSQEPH

[5] = biological target: T4, GST-Mouse full-length GSDMD harboring E369K/L370A mutations (mouse, UniProt Q9D8T2 1-487, E369K | L370A); test: pull-down
T4 sequence (looked up): T1 sequence (looked up) with A367V, L370A

[6] = biological target: T5, GST-Mouse full-length GSDMD harboring L361A/V367A/L370A mutations (3A mutant) (mouse, UniProt Q9D8T2 1-487, L361A | V367A | L370A); test: pull-down
T5 sequence (looked up): T1 sequence (looked up) with L361A, K369E, L370A

[7] = biological target: T6, GST-Mouse full-length GSDMD harboring L306A/L310A mutations (2A mutant) (mouse, UniProt Q9D8T2 1-487, L306A | L310A); test: pull-down
T6 sequence (looked up): T1 sequence (looked up) with L306A, L310A, A367V, K369E

[8] = biological target: T7, GST-Mouse full-length wild type GSDMD (mouse, UniProt Q9D8T2 1-487); test: pull-down
T7 sequence (looked up): T1 sequence (looked up) with A367V, K369E

[9] = biological target: T8, mouse full-length wild type gasdermin D (mGSDMD) (mouse, UniProt Q9D8T2 1-487); test: SEC
T8 sequence (looked up): T1 sequence (looked up) with A367V, K369E

[10] = biological target: T9, human GSDMD harboring truncation of residues 243-278 (human, UniProt P57764 1-484, truncation of residues 243-278); test: SEC
T9 sequence (looked up): T2 sequence (looked up)

[11] = biological target: T10, human full-length wild type gasdermin D (hGSDMD) (human, UniProt P57764 1-484); test: SEC
T10 sequence (looked up): T3 sequence (looked up)

Measured: binding result

B1: human caspase-1 (hCASP1) catalytic domain p22/p10, C285A mutant (enzyme)
chain 1: NPAMPTSSGSEGNVKLCSLEEAQRIWKQKSAEIYPIMDKSSRTRLALIICNEEFDSIPRRTGAEVDITGMTMLLQNLGYSVDVKKNLTASDMTTELEAFAHRPEHKTSDSTFLVFMSHGIREGICGKKHSEQVPDILQLNAIFNMLNTKNCPSLKDKPKVIIIQAARGDSPGVVWFKDSVGVSGNLSLPTTEEFEDD
chain 2: AIKKAHIEKDFIAFCSSTPDNVSWRHPTMGSVFIGRLIEHMQEYACSCDVEEIFRKVRFSFEQPDGRAQMPTTERVTLTRCFYLFPGH
binds: all assays above
